In the supplement of paper PMC12042874:
± gives the uncertainty stated by the source.

Experiment: amyloid nucleation score (Sup35N fusion, yeast selection) (log enrichment); library NNK3; higher = more nucleation; inactive = no reads after selection
Procedure, shortened: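 Libraries of peptides of 20 random codons fused to Sup35N were expressed in psi-negative yeast and induced 24 hours with 100 μM copper sulfate. Selection was 7 days at 30°C on medium lacking adenine and uracil, and plasmid inserts were Illumina-sequenced before and after selection. Nucleation score is the DiMSum log enrichment of output over input reads, centred on the mode score of non-aggregating sequences, and sequences with under 100 input reads were left out.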

FPKLAIVFMHSSLWYFSYWV
amyloid nucleation score: inactive

FPLDRGYSVTGDMRMPPAVR
amyloid nucleation score: inactive

FPLESG
amyloid nucleation score: inactive

FPQFLSIAGPKPHCKN
amyloid nucleation score: inactive

FPVYQCWLSN
amyloid nucleation score: inactive

FQCMFYFIFSRCQHLVYCHF
amyloid nucleation score: inactive

FQCWYNKIRKFWVVHRWVSM
amyloid nucleation score: inactive

FQMVA
amyloid nucleation score: inactive

FRLMVGCCYGGPGREVWAGG
amyloid nucleation score: inactive

FRLRGLKLTSNMDDWMLIKE
amyloid nucleation score: inactive

FRNNRRRAVMCSGFMFRFNF
amyloid nucleation score: inactive

FRQYKSPGDLPRMDAVACGK
amyloid nucleation score: -0.832 ± 2.5

FRSAN
amyloid nucleation score: inactive

FRYRLWAMRDVKHSYDFSLW
amyloid nucleation score: inactive

FSACRDRTLGDHGQQPRDIG
amyloid nucleation score: inactive

FSAGGVPYYICYSCIAKFRL
amyloid nucleation score: inactive

FSAIRVLYSVKTELDSNNMY
amyloid nucleation score: 0.822 ± 0.24

FSASVVSTGINTSY
amyloid nucleation score: inactive

FSCDIAVILNLDLTMVDLLF
amyloid nucleation score: inactive

FSCMTADSNSGIVRVR
amyloid nucleation score: inactive

FSEASPLYVTSPRQSSLPRP
amyloid nucleation score: inactive

FSFITL
amyloid nucleation score: inactive

FSFTRNERIDSLCSNAHSFT
amyloid nucleation score: inactive

FSFWTTSN
amyloid nucleation score: inactive

FSGATSFNQIYAVRTSCLFV
amyloid nucleation score: 1.01 ± 0.18

FSGFTVR
amyloid nucleation score: inactive

FSGNGSSYYASSMNGDTVFL
amyloid nucleation score: inactive

FSGNRSGESSVRWNQYELGV
amyloid nucleation score: inactive

FSGRFHMENTMYHTIYKIKS
amyloid nucleation score: inactive

FSISKLGCCYVTAMVVSASR
amyloid nucleation score: inactive

FSLDPTIVMSVIARDSMSML
amyloid nucleation score: inactive

FSLFS
amyloid nucleation score: inactive

FSLHNRGFMIQHKRVLEDGA
amyloid nucleation score: inactive

FSLHQSNTLRPWDLIPATW
amyloid nucleation score: inactive

FSLLCFRSWANPIVTMYKYY
amyloid nucleation score: inactive

FSLMLSRTTMAIFTDIRDWG
amyloid nucleation score: inactive

FSLSQLLVCFWADSRSMKWT
amyloid nucleation score: inactive

FSLWEHPVKIMCLFVYVACG
amyloid nucleation score: inactive

FSNDFFCLCPS
amyloid nucleation score: inactive

FSNGPSAVYYFIYLGLFNKN
amyloid nucleation score: 1.48 ± 0.072

FSRGLNHYNLYNFGGLCICT
amyloid nucleation score: 2.91 ± 0.07

FSSCDHRFWTFLIKFMLLAL
amyloid nucleation score: inactive

FSSYTWNPL
amyloid nucleation score: inactive

FSVIMFMNLRAQFASMDRGG
amyloid nucleation score: 1.59 ± 0.12

FSVLVSCSWGMKFI
amyloid nucleation score: inactive

FSVYVAG
amyloid nucleation score: inactive

FSYSSRGVYYG
amyloid nucleation score: -0.649 ± 0.98

FSYVPQAILYLCLYYNVVHT
amyloid nucleation score: inactive

FTCEPARFKDYQWNNEGYCL
amyloid nucleation score: inactive

FTCQSHAILGVDDDTWGRTN
amyloid nucleation score: inactive

FTFRLVKNTTLNGIYFCIKR
amyloid nucleation score: 0.787 ± 0.18

FTINV
amyloid nucleation score: inactive

FTIVTQCEPTRLSCISDNIR
amyloid nucleation score: inactive

FTLDYLNSGSI
amyloid nucleation score: inactive

FTLPKHFTRIL
amyloid nucleation score: inactive

FTMALMLALTTGISSMSVGG
amyloid nucleation score: 0.345 ± 0.37

FTPLCSNVAGRNMEQYCS
amyloid nucleation score: inactive

FTWIFRFMPIWHACDKRVFE
amyloid nucleation score: 1.71 ± 0.088

FVANISFWFSVFNRVYESYT
amyloid nucleation score: 0.841 ± 0.1

FVFIVCMCSSTWAQMYGLNW
amyloid nucleation score: 1.25 ± 0.084

FVGVYKMGFASCSMSGSGWV
amyloid nucleation score: inactive

FVHRLPGWGSKLKTIRTCSN
amyloid nucleation score: inactive

FVLKRYRCFLYLVQYDISTL
amyloid nucleation score: -0.326 ± 0.98

FVRLHSFA
amyloid nucleation score: inactive

FVSEFMTSSTYLVPTVHITV
amyloid nucleation score: inactive

FVSGYVVALCYPWQGCPGVC
amyloid nucleation score: 1.97 ± 0.093

FVSLALGFGILSFYKDRLWD
amyloid nucleation score: 0.598 ± 0.33

FVSPNLIVMVWVHWRSEINR
amyloid nucleation score: inactive

FVTAKQCVVCRQ
amyloid nucleation score: inactive

FVTSVQVRFNMGFFAELFAV
amyloid nucleation score: inactive

FVVLLGFYHLASQDAYRGAL
amyloid nucleation score: 1.09 ± 0.14

FVYSCNC
amyloid nucleation score: 2.34 ± 0.08

FWCIYS
amyloid nucleation score: inactive

FWFWMIVDNRWYSLAVEARW
amyloid nucleation score: -0.304 ± 0.8

FWKKLWNSSF
amyloid nucleation score: inactive

FWPMFSVVVRRRKFHSTPVH
amyloid nucleation score: inactive

FWTLDRLRMLYVAILQPWSD
amyloid nucleation score: inactive

FWVVISLMSSRVTVASDDHI
amyloid nucleation score: inactive

FWWKSYFFNLKV
amyloid nucleation score: inactive

FYEVRVRRVRVHVKEQPLLH
amyloid nucleation score: -0.406 ± 1.3

FYFDRTSVIMRLFSMWNNFG
amyloid nucleation score: inactive

FYFPLYDL
amyloid nucleation score: inactive

FYKAFIL
amyloid nucleation score: inactive

FYKLTLRSVRFLSFTYRIGA
amyloid nucleation score: inactive

FYLGEYETLFVKDIRGDSVP
amyloid nucleation score: -0.97 ± 1.1

FYLGLAYVLSWVGFCVIGVS
amyloid nucleation score: inactive

FYLHSFRLNHSLRDLSDLGE
amyloid nucleation score: inactive

FYMLMISSQYFVTRLAPYFP
amyloid nucleation score: -0.015 ± 0.87

FYPLYSNEHCCG
amyloid nucleation score: inactive

FYPTNGSGSRVLMHGNSMLC
amyloid nucleation score: inactive

FYRRNAI
amyloid nucleation score: inactive

FYSCGNDAASMLFRLTSGGI
amyloid nucleation score: inactive

FYSFWYPFTVSAMRLYWCSW
amyloid nucleation score: inactive

FYTFYSHLNELLHL
amyloid nucleation score: -0.009 ± 0.66

FYVPVYGERV
amyloid nucleation score: inactive

FYVVNSWPRMMCGQARILCL
amyloid nucleation score: inactive

FYWSFIRLFRS
amyloid nucleation score: inactive

FYYANMTRSKILAPFSRPSR
amyloid nucleation score: inactive

FYYDYSLCPCYYVGDYEHES
amyloid nucleation score: 2.41 ± 0.056

FYYLTKSGYAFRLSKTSP
amyloid nucleation score: inactive

GAFPRGSS
amyloid nucleation score: inactive

GANKVSNRRVMSSDPTSQCL
amyloid nucleation score: inactive

GAQAKC
amyloid nucleation score: inactive

GAQKYSFPRVSWPILGRIDY
amyloid nucleation score: inactive

GATNDH
amyloid nucleation score: inactive

GAVLLSGEEL
amyloid nucleation score: 0.871 ± 0.17

GCAKVKLI
amyloid nucleation score: -0.292 ± 0.75

GCASRLFVGWRGSCRMCGTY
amyloid nucleation score: inactive

GCECGISHLVLGAKVVPSMI
amyloid nucleation score: inactive

GCGPLNFSVESHQCLKS
amyloid nucleation score: inactive

GCGRTEMNVSMSGPSRMVDL
amyloid nucleation score: inactive

GCKRSSGKRFLCRGAPCDEW
amyloid nucleation score: inactive

GCLEFGVMEFPGEDEFNFLG
amyloid nucleation score: inactive

GCLIAGYKKRDANKFCGVAL
amyloid nucleation score: inactive

GCLVRCDFVSQCLNWDG
amyloid nucleation score: inactive

GCPIFAIFFDLTLCDNARYM
amyloid nucleation score: 2.47 ± 0.08

GCSRWCFGDTGIE
amyloid nucleation score: inactive

GCVMVKSSLMFSLLR
amyloid nucleation score: -0.883 ± 1.2

GDCVLDPDLRSWDEW
amyloid nucleation score: inactive

GDFTSLDVVYYGNDCTLF
amyloid nucleation score: inactive

GDKISANACSMNFFDMFW
amyloid nucleation score: inactive

GDSGPDKKWHFTKY
amyloid nucleation score: inactive

GDTHESFVGRTVYPDRLESH
amyloid nucleation score: inactive

GECTWTDVPMANSPRFVSEY
amyloid nucleation score: inactive

GEKIDRVM
amyloid nucleation score: inactive

GELRPLIVGDNLGLS
amyloid nucleation score: inactive

GESNLCDAG
amyloid nucleation score: inactive

GFCICEYDRCTIFSYNHYGA
amyloid nucleation score: 2.94 ± 0.054

GFINKDVF
amyloid nucleation score: inactive

GFLTKCALWKIWF
amyloid nucleation score: inactive

GFPKWDESSMSTFDCSIRSR
amyloid nucleation score: inactive

GFRECTRNFFL
amyloid nucleation score: 0.361 ± 0.17

GFSGPSLGQIAG
amyloid nucleation score: inactive

GFSNFQEVVGILYCQFWVLL
amyloid nucleation score: 1.33 ± 0.075

GFSNITMCLA
amyloid nucleation score: inactive

GFTRFFYLSRLMVGNMI
amyloid nucleation score: inactive

GFWLGVMVTHTSTTYSAFTP
amyloid nucleation score: 0.059 ± 0.29

GGARMRFDQFMRHRATLASV
amyloid nucleation score: inactive

GGDSPNDARRFFNFHIYNIW
amyloid nucleation score: 2.05 ± 0.08

GGFVLC
amyloid nucleation score: inactive

GGKHPGMCFHCEWLGYWFTS
amyloid nucleation score: inactive

GGKLGTLCSNSRYGSVHMGV
amyloid nucleation score: inactive

GGLVSCLSAARIGHHGASLE
amyloid nucleation score: inactive

GGNSWITSMLAYWLTSAHNA
amyloid nucleation score: inactive

GGYRVGFYQY
amyloid nucleation score: inactive

GHGSFE
amyloid nucleation score: inactive

GHMTVSTWWNIVYMAKGYRV
amyloid nucleation score: -0.425 ± 0.8

GHSGKVVL
amyloid nucleation score: inactive

GICNQNIPQRGSMWLVSKTF
amyloid nucleation score: inactive

GIEADYSYMSGEGKAVCSSM
amyloid nucleation score: inactive

GIGCDLFRCADTRWIVLPSM
amyloid nucleation score: inactive

GILRQRIYFSM
amyloid nucleation score: inactive

GIMMSD
amyloid nucleation score: inactive

GKCRQGYTRMWHNYMLMGIL
amyloid nucleation score: inactive

GKDVHMKGNSKRSVWYVPQG
amyloid nucleation score: inactive

GKGSNASIGVITVDTVYIVA
amyloid nucleation score: 1.42 ± 0.09

GKLYPKNVSWILFSAETYLY
amyloid nucleation score: 2.54 ± 0.075

GKSTYVLFGKWNTEKTRNRG
amyloid nucleation score: inactive

GKYVVIDIGRSYFSKISGFR
amyloid nucleation score: inactive

GLDGTGHKYDGQFARRWNLR
amyloid nucleation score: inactive
